The source of these data is paper PMC2570342 (Cell, 2008).

A word on the IC50: it is the concentration at which inhibition is half-maximal.

The target in this experiment is actin filaments (F-actin) (UniProt P68135 1-377). Kind of experiment: co-sedimentation.

B1: Coronin 1B (recombinant) (natural protein)
chain: MSFRKVVRQSKFRHVFGQPVKNDQCYEDIRVSRVTWDSTFCAVNPKFLAVIVEASGGGAFLVLPLSKTGRIDKAYPTVCGHTGPVLDIDWCPHNDEVIASGSEDCTVMVWQIPENGLTSPLTEPVVVLEGHTKRVGIIAWHPTARNVLLSAGCDNVVLIWNVGTAEELYRLDSLHPDLIYNVSWNHNGSLFCSACKDKSVRIIDPRRGTLVAEREKAHEGARPMRAIFLADGKVFTTGFSRMSERQLALWDPENLEEPMALQELDSSNGALLPFYDPDTSVVYVCGKGDSSIRYFEITEEPPYIHFLNTFTSKEPQRGMGSMPKRGLEVSKCEIARFYKLHERKCEPIVMTVPRKSDLFQDDLYPDTAGPEAALEAEEWVSGRDADPILISLREAYVPSKQRDLKISRRNVLSDSRPAMAPGSSHLGAPASTTTAADATPSGSLARAGEAGKLEEVMQELRALRALVKEQGDRICRLEEQLGRMENGDA
As for B1, half-maximal inhibition (IC50) required 74 nM.
